In article PMC5611513 (Frontiers in Cellular and Infection Microbiology, 2017):

T1: TplEi (Pseudomonas aeruginosa, UniProt Q9I3K3)
T1 sequence: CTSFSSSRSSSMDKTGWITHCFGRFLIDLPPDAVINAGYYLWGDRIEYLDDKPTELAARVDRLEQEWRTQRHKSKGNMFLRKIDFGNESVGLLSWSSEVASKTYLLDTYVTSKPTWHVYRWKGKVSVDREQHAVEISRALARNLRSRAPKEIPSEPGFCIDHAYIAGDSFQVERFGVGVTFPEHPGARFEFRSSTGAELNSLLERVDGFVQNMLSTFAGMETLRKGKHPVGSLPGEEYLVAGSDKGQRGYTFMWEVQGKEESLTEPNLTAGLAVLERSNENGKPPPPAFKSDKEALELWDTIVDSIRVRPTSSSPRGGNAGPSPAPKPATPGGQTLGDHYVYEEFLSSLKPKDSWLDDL

B1: A peptides (“L” peptide, TplE 82-108 plus EQVEVDD) (peptide)
peptide: Ac-DDLFASIGALWTWAWRGPKARQELLKAEQVEVDD-NH2
notes: source: synthetic peptide (solid-phase FMOC, Scilight Biotechnology LLC, HPLC purified)
B2: B peptides (“L” peptide, TplE 82-108 plus EQ) (peptide)
peptide: Ac-DDLFASIGALWTWAWRGPKARQELLKAEQ-NH2
notes: as for B1

Target: T1, TplEi
Experiment: ITC
Settings: both partners purified

Row | Binder | Kd
1 | B1 | ~125 nM
2 | B2 | 478 nM
